The results in this text go back to patent US20100189760A1.

The assay concerns the target neural stem cell surface (cell surface molecule(s) of NSCs, not identified) (rat (adult hippocampus, stated in Example 1)). Description: flow cytometry, GFP bacterial clone displaying the peptide on NSCs. For orientation: In flow cytometry, cells or beads pass a laser one at a time.
In turn, WVCNDLIHHFCVW [clone Co-15 peptide] displayed a % NSCs with Bacteria of 70.9%.

SDWSVLLSCERWYCI [clone 15-16 peptide] gave a % NSCs with Bacteria of 63.9%.

YMCMSRGDATCDV [clone 7C-4 peptide] showed a % NSCs with Bacteria of 62%.

IWCGSRFGCWCKP [clone 7C-5 peptide]: the % NSCs with Bacteria came out at 65.6%.

WFCLLGRSAYCVR [clone 7C-3 peptide] registered a % NSCs with Bacteria of 71.9%. In the case of ESCWYQIMYKCAN [clone 7C-2 peptide] it was 55.2%; in that of KLCCFDKGYYCMR [clone 7C-9 peptide], 71.3%; in that of VWCGMFGKRRCVT [clone Co-22 peptide], 75.6%. Consider WLCLDKNCMACVW [clone 7C-8 peptide], for which the % NSCs with Bacteria was found to be 68.8%. WNCIKGSSWACVW [clone 7C-21 peptide] registered a % NSCs with Bacteria of 75.5%. Turning to QGCAFVTYWACIF [clone Co-16 peptide], the % NSCs with Bacteria was determined as 71.9%. Take LNCAMYNACIW [clone 7C-14 peptide]: the % NSCs with Bacteria was determined as 54.5%. Then FWCIRGEYWVCDR [clone 7C-12 peptide], with 64.5%; and WLCKGSNKYMCEW [clone 7C-17 peptide], with 67.8%. LCCESYICALCHY [clone 7C-11 peptide] came in with a % NSCs with Bacteria of 37.7%. As for RRELVRMTDWVWVSG [clone 15-32 peptide], the % NSCs with Bacteria was found to be 70.4%. For the molecule WMCSGVQPNACVW [clone 7C-22 peptide], the % NSCs with Bacteria came to 46.9%. As for GFVLVWSYTCRCWGK [clone 15-50 peptide], the % NSCs with Bacteria is 64.9%. For the molecule WDCGKKNAWMCIW [clone Co-5 peptide], the % NSCs with Bacteria turned out to be 67.4%. Then SLCAAYNRWACIW [clone Co-1 peptide], with 73.8%; and STCSWVSSYVCIM [clone Co-13 peptide], with 64.8%; and WQCGRFWCIHCLW [clone Co-19 peptide], with 50.6%. In the case of ESGLKVMCMKYYCMA [clone 15-52 peptide] it was 63.3%; in that of WYCFRENKYVCVM [clone 7C-1 peptide], 75.2%. The molecule GECFYYVMNTCVW [clone 7C-6 peptide] displayed a % NSCs with Bacteria of 61.8%. WTWESAFAGRWEVGD [clone Co-8 peptide] had a % NSCs with Bacteria of 61.7%. DHKFGLVMLNKYAYAG [clone 15-2 peptide] came in with a % NSCs with Bacteria of 75.9%. Molecule WECAEESKFWCVF [clone Co-17 peptide] showed a % NSCs with Bacteria of 72.1%. Regarding LVCNRQNPWVCYI [clone Co-23 peptide], the % NSCs with Bacteria was 71.1%. For WVCLWRHRGDCSI [clone Co-12 peptide], the % NSCs with Bacteria was found to be 74.3%. The molecule WWCKKPEYWYCIW [clone Co-18 peptide] gave a % NSCs with Bacteria of 71.3%. LECTERGDFNCFV [clone 7C-7 peptide] displayed a % NSCs with Bacteria of 47.8%. With WWCDMRGDSRCSG [clone 7C-24 peptide], the % NSCs with Bacteria was determined as 61.7%. Molecule GGCRWYAKWVCVW [clone Co-3 peptide] returned a % NSCs with Bacteria of 75.7%. In the case of QCCQLRGDAVCNC [clone 7C-15 peptide] it was 54%. With WVCIWERFKSCNE [clone 7C-20 peptide], the % NSCs with Bacteria amounted to 65.7%. Consider LECPGESKYYCIY [clone Co-11 peptide], for which the % NSCs with Bacteria amounted to 72.7%. As to RLCCWKTQYFCEI [clone Co-20 peptide], the % NSCs with Bacteria was determined as 70.9%. Regarding DLCTYGHLWLGNGRP [clone 15-59 peptide], the % NSCs with Bacteria was 22.5%. WVCNKLGVYACEY [clone 7C-19 peptide] registered a % NSCs with Bacteria of 20.5%. Regarding WSCPKVNQYACFW [clone Co-2 peptide], the % NSCs with Bacteria stood at 74.8%. The molecule MYCERDSKYWCIH [clone Co-21 peptide] came in with a % NSCs with Bacteria of 70.9%. For the molecule SKCWGWTPYYCVA [clone Co-9 peptide], the % NSCs with Bacteria came out at 75.7%.

Molecule WRCLGDGYHACVR [clone Co-10 peptide] came in with a % NSCs with Bacteria of 72.7%. Then LEDAMGWALSWGHIW [clone 15-6 peptide], with 70.2%.
